In publication PMC9522936, “Regain flood adaptation in rice through a 14-3-3 protein OsGF14h” (Nature Communications, 2022):

T1: OsHOX3 (Oryza sativa, UniProt Q9XH38 1-229)
T1 sequence: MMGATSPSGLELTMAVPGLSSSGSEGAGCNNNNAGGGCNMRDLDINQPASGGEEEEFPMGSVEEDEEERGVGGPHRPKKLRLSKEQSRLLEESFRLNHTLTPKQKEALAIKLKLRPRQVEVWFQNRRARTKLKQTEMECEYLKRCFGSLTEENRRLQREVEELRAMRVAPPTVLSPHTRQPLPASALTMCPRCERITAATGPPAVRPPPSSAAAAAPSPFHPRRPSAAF

T2: His-OsGF14h^SN9816 (rice (Oryza sativa), japonica variety …, UniProt Q2R1D5 1-230)
T2 construct: also called Hap1; source: E. coli Rosetta (DE3), purified (Ni NTA beads)
T2 sequence (looked up): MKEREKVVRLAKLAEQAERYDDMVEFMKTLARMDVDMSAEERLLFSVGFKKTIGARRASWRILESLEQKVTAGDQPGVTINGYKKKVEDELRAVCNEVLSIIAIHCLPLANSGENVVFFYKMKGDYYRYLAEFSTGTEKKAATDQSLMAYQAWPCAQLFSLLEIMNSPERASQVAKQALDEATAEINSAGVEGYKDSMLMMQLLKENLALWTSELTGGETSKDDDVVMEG


What was measured:
[1] = molecular target: T1, OsHOX3; assay: EMSA; without OsGF14h; Chemiluminescent EMSA Kit GS009 (Beyotime) per manufacturer; 6% native polyacrylamide gel; unlabeled competitor 10x and 20x; buffer, pH and temperature not stated; settings: protein: recombinant; tags: GST (pGEX4T-1; N-terminal); chain copies: 2; label: biotin 3' end; blunt
[2] = molecular target: T2, His-OsGF14h^SN9816; assay: pull-down; GST-OsHOX3 or GST-OsVP1 as bait on GST beads, equal quantities of recombinant proteins in GST pull-down buffer at 4 °C overnight, His-OsGF14h detected by anti-His; settings: both partners purified

Row | binding result [2] | Binder | binding result [1]
1 |  | OsPYL5 promoter HD-ZIP3 probe (55 bp) (dsDNA) DNA 1: AATATAAAACGGTGGGAGTATTAATGATTACATAGTCAATTTTATGTTTGCATTA DNA 2: TAATGCAAACATAAAATTGACTATGTAATCATTAATACTCCCACCGTTTTATATT | binds
2 | binds | GST-OsHOX3 (natural protein, rice, UniProt Q0JKX1 1-229, looked up, HD-Zip family transcription factor OsHOX3, rice; source: E. coli Rosetta (DE3), purified (GST beads)) MMGATSPSGLELTMAVPGLSSSGSEGAGCNNNNAGGGCNMRDLDINQPASGGEEEEFPMGSVEEDEEERGVGGPHRPKKLRLSKEQSRLLEESFRLNHTLTPKQKEALAIKLKLRPRQVEVWFQNRRARTKLKQTEMECEYLKRCFGSLTEENRRLQREVEELRAMRVAPPTVLSPHTRQPLPASALTMCPRCERITAATGPPAVRPPPSSAAAAAPSPFHPRRPSAAF | 
